Target: D-VEGF
Test: SPR affinity measurements of GB1 peptidic compounds on immobilized D-VEGF
Type: binding
Details: for Kd / Koff / Kon: target D-VEGF; for effect of point mutation on affinity: notes to Table 5, relative to E01
Experimental: VEGF binding compounds were expressed. Binding affinities were measured using the […] SPR system. SPR analysis was performed on a ProteOn XPR36 Protein Interaction Array System (BioRad). Chemically synthesized L-VEGF, D-VEGF and VEGF165 (Peprotech) were immobilized in 50 mM Sodium Acetate (pH 5.5) to a non-dilute EDAC/sulfo-NHS activated GLC surface on separate channels using a flow rate of […] for 5 minutes in the vertical direction. Immobilization levels were monitored to ensure immobilization of approximately 500 response units of each protein. The domains were then stabilized with PBS for 30 seconds and 0.85% H3PO4 for 18 seconds each at […]. GB1 variants were diluted in PBS plus 0.05% Tween 20 at a starting concentration of 200 nM. The binders were further diluted with PBST 2-fold in series to produce 5 concentrations of variants. A PBST blank was also included. GB1 variant injection parameters were: […], 60 seconds contact time, and 600 seconds dissociation time, in the horizontal direction. VEGF proteins were regenerated with an injection of 0.85% H3PO4 at a flow rate of […] followed by a PBST wash of 30 seconds at […] flow rate.

[1] = Table 1, E01 point mutants expressed in E. coli
[2] = Table 2, GB1-E01 double mutants

Kd (Table 1) | Kd [2] | Molecule | Koff (Table 1) | Kon [1] | Koff [2] | Kon [2] | effect of point mutation on affinity
7.8 nM | – | E01-V31A: E01 point mutant V31A (protein) MKIEEHHHHHHHHHHGGSTYKLILNGKTLKGETTTEAVDVYDAFDVFFAYAASNFSDFDDWTYDDATKTFTVTEGGSDK | 0.00194 s⁻¹ | 250000 M⁻¹ s⁻¹ | – | – | –
9.3 nM | – | E01-S35R: E01 point mutant S35R (protein) MKIEEHHHHHHHHHHGGSTYKLILNGKTLKGETTTEAVDVYDAFDVFFVYAARNFSDFDDWTYDDATKTFTVTEGGSDK | 0.00258 s⁻¹ | 279000 M⁻¹ s⁻¹ | – | – | –
– | 5.4 nM | E01-D39F/S35G: E01 double mutant D39F/S35G (protein) MKIEEHHHHHHHHHHGGSTYKLILNGKTLKGETTTEAVDVYDAFDVFFVYAAGNFSFFDDWTYDDATKTFTVTEGGSDK | – | – | 0.00193 s⁻¹ | 358000 M⁻¹ s⁻¹ | –
8.79 nM | – | E01-S35G: E01 point mutant S35G (protein) MKIEEHHHHHHHHHHGGSTYKLILNGKTLKGETTTEAVDVYDAFDVFFVYAAGNFSDFDDWTYDDATKTFTVTEGGSDK | 0.00348 s⁻¹ | 396000 M⁻¹ s⁻¹ | – | – | –
11.1 nM | – | E01-F40I: E01 point mutant F40I (protein) MKIEEHHHHHHHHHHGGSTYKLILNGKTLKGETTTEAVDVYDAFDVFFVYAASNFSDIDDWTYDDATKTFTVTEGGSDK | 0.00441 s⁻¹ | 398000 M⁻¹ s⁻¹ | – | – | –
67.5 nM | – | E01-D41V: E01 point mutant D41V (protein) MKIEEHHHHHHHHHHGGSTYKLILNGKTLKGETTTEAVDVYDAFDVFFVYAASNFSDFVDWTYDDATKTFTVTEGGSDK | 0.0333 s⁻¹ | 493000 M⁻¹ s⁻¹ | – | – | –
– | 3.1 nM | E01-D39F/D27E: E01 double mutant D39F/D27E (protein) MKIEEHHHHHHHHHHGGSTYKLILNGKTLKGETTTEAVDVYDAFEVFFVYAASNFSFFDDWTYDDATKTFTVTEGGSDK | – | – | 0.00158 s⁻¹ | 511000 M⁻¹ s⁻¹ | –
– | 2.99 nM | E01-D39F/V31A: E01 double mutant D39F/V31A (protein) MKIEEHHHHHHHHHHGGSTYKLILNGKTLKGETTTEAVDVYDAFDVFFAYAASNFSFFDDWTYDDATKTFTVTEGGSDK | – | – | 0.00167 s⁻¹ | 558000 M⁻¹ s⁻¹ | –
7.47 nM | – | E01-S35E: E01 point mutant S35E (protein) MKIEEHHHHHHHHHHGGSTYKLILNGKTLKGETTTEAVDVYDAFDVFFVYAAENFSDFDDWTYDDATKTFTVTEGGSDK | 0.00304 s⁻¹ | 407000 M⁻¹ s⁻¹ | – | – | –
9.6 nM | – | E01-D27E: E01 point mutant D27E (protein) MKIEEHHHHHHHHHHGGSTYKLILNGKTLKGETTTEAVDVYDAFEVFFVYAASNFSDFDDWTYDDATKTFTVTEGGSDK | 0.00333 s⁻¹ | 347000 M⁻¹ s⁻¹ | – | – | –
– | 5.35 nM | E01-D39F/S35R: E01 double mutant D39F/S35R (protein) MKIEEHHHHHHHHHHGGSTYKLILNGKTLKGETTTEAVDVYDAFDVFFVYAARNFSFFDDWTYDDATKTFTVTEGGSDK | – | – | 0.00183 s⁻¹ | 341000 M⁻¹ s⁻¹ | –
14.9 nM | – | E01-D24G: E01 point mutant D24G (protein) MKIEEHHHHHHHHHHGGSTYKLILNGKTLKGETTTEAVDVYGAFDVFFVYAASNFSDFDDWTYDDATKTFTVTEGGSDK | 0.00247 s⁻¹ | 166000 M⁻¹ s⁻¹ | – | – | –
– | 1.14 nM | E01-D39F/V22L: E01 double mutant D39F/V22L (protein) MKIEEHHHHHHHHHHGGSTYKLILNGKTLKGETTTEAVDLYDAFDVFFVYAASNFSFFDDWTYDDATKTFTVTEGGSDK | – | – | 0.00082 s⁻¹ | 719000 M⁻¹ s⁻¹ | –
– | 4.49 nM | E01-D39F/A34S: E01 double mutant D39F/A34S (protein) MKIEEHHHHHHHHHHGGSTYKLILNGKTLKGETTTEAVDVYDAFDVFFVYASSNFSFFDDWTYDDATKTFTVTEGGSDK | – | – | 0.00174 s⁻¹ | 387000 M⁻¹ s⁻¹ | –
4.23 nM | 3.48 nM | E01-D39F: E01 point mutant D39F; scaffold for double mutants (protein) MKIEEHHHHHHHHHHGGSTYKLILNGKTLKGETTTEAVDVYDAFDVFFVYAASNFSFFDDWTYDDATKTFTVTEGGSDK | 0.00213 s⁻¹ | 504000 M⁻¹ s⁻¹ | 0.00132 s⁻¹ | 380000 M⁻¹ s⁻¹ | ^3 D39F point mutant increased affinity
– | 2.83 nM | E01-D39F/S38G: E01 double mutant D39F/S38G (protein) MKIEEHHHHHHHHHHGGSTYKLILNGKTLKGETTTEAVDVYDAFDVFFVYAASNFGFFDDWTYDDATKTFTVTEGGSDK | – | – | 0.00131 s⁻¹ | 463000 M⁻¹ s⁻¹ | –
7.8 nM | – | E01-A34S: E01 point mutant A34S (protein) MKIEEHHHHHHHHHHGGSTYKLILNGKTLKGETTTEAVDVYDAFDVFFVYASSNFSDFDDWTYDDATKTFTVTEGGSDK | 0.00278 s⁻¹ | 356000 M⁻¹ s⁻¹ | – | – | –
– | 2.29 nM | E01-D39F/F40I: E01 double mutant D39F/F40I (protein) MKIEEHHHHHHHHHHGGSTYKLILNGKTLKGETTTEAVDVYDAFDVFFVYAASNFSFIDDWTYDDATKTFTVTEGGSDK | – | – | 0.00138 s⁻¹ | 602000 M⁻¹ s⁻¹ | –
13.7 nM | – | E01-S38K: E01 point mutant S38K (protein) MKIEEHHHHHHHHHHGGSTYKLILNGKTLKGETTTEAVDVYDAFDVFFVYAASNFKDFDDWTYDDATKTFTVTEGGSDK | 0.0028 s⁻¹ | 204000 M⁻¹ s⁻¹ | – | – | –
5.8 nM | – | E01-V22L: E01 point mutant V22L, His-tagged, expressed in E. coli (protein) MKIEEHHHHHHHHHHGGSTYKLILNGKTLKGETTTEAVDLYDAFDVFFVYAASNFSDFDDWTYDDATKTFTVTEGGSDK | 0.00239 s⁻¹ | 411000 M⁻¹ s⁻¹ | – | – | ^2 V22L point mutant increased affinity;
9 nM | – | E01-S38G: E01 point mutant S38G (protein) MKIEEHHHHHHHHHHGGSTYKLILNGKTLKGETTTEAVDVYDAFDVFFVYAASNFGDFDDWTYDDATKTFTVTEGGSDK | 0.00387 s⁻¹ | 428000 M⁻¹ s⁻¹ | – | – | –
– | 4.52 nM | E01-D39F/S35E: E01 double mutant D39F/S35E (protein) MKIEEHHHHHHHHHHGGSTYKLILNGKTLKGETTTEAVDVYDAFDVFFVYAAENFSFFDDWTYDDATKTFTVTEGGSDK | – | – | 0.00205 s⁻¹ | 454000 M⁻¹ s⁻¹ | –

From patent US20120178682A1, “GB1 Peptidic Compounds and Methods for Making and Using the Same” (priority 2010, published 2012)
